Data reported in article PMC8632965.

Key:
[1] = target: extracellular portion of CD147 (ECD), amino acids 22–205 (human) (UniProt P35613); test: SPR; Biacore T200; CD147ECD peptides diluted in 10 mM sodium acetate pH 4.5 and immobilised on a CM5 chip; purified proteins injected as analytes at 10 µL/min; BSA signal subtracted
[2] = target: domain 1 of CD147 (human) (UniProt P35613); test: as above

Kd [1]: 431 nM | Kd [2]: 3530 nM
Substance: extracellular portion of CD98 (212-630 of CD98hc) (domain or fragment)
